Source: paper PMC6028238

Assays:
[1] = biological target: protein H on the surface of S. pyogenes AP1 bacteria (Streptococcus pyogenes (endogenous in strain AP1)); test: electron microscopy with gold-labelled protein
[2] = biological target: human C4b-binding protein (C4BP), purified from plasma (human) (UniProt P04003); test: negative-stain electron microscopy
[3] = biological target: protein H on the surface of S. pyogenes AP1 bacteria (Streptococcus pyogenes (endogenous in strain AP1)); test: flow cytometry on cells

## human C4b-binding protein (C4BP), purified from plasma (from UniProt P04003 49-597; P20851 18-252) (complex)
[1]
  gold particles of C4BP bound to the surface, with IgG (gold particles/mm^2): 917
  gold particles of C4BP bound to the surface, without IgG (gold particles/mm^2): 82

## protein H (Streptococcus pyogenes), recombinant (natural protein)
[2]
  percent of C4BP molecules complexed with protein H, with IgG: 83%
  percent of C4BP molecules complexed with protein H, without IgG: 7%

B1: human C4BP in serum of human C4BP transgenic mice (natural protein)
chain: NCGPPPTLSFAAPMDITLTETRFKTGTTLKYTCLPGYVRSHSTQTLTCNSDGEWVYNTFCIYKRCRHPGELRNGQVEIKTDLSFGSQIEFSCSEGFFLIGSTTSRCEVQDRGVGWSHPLPQCEIVKCKPPPDIRNGRHSGEENFYAYGFSVTYSCDPRFSLLGHASISCTVENETIGVWRPSPPTCEKITCRKPDVSHGEMVSGFGPIYNYKDTIVFKCQKGFVLRGSSVIHCDADSKWNPSPPACEPNSCINLPDIPHASWETYPRPTKEDVYVVGTVLRYRCHPGYKPTTDEPTTVICQKNLRWTPYQGCEALCCPEPKLNNGEITQHRKSRPANHCVYFYGDEISFSCHETSRFSAICQGDGTWSPRTPSCGDICNFPPKIAHGHYKQSSSYSFFKEEIIYECDKGYILVGQAKLSCSYSHWSAPAPQCKALCRKPELVNGRLSVDKDQYVEPENVTIQCDSGYGVVGPQSITCSGNRTWYPEVPKCEWETPEGCEQVLTGKRLMQCLPNPEDVKMALEVYKLSLEIEQLELQRDSARQSTLDKEL
[3]
  C4BP binding without IgG at 30 °C, as percent of the binding with IVIG: 40%
  C4BP binding without IgG at 39 °C, as percent of the binding with IVIG: < 10%
  fold increase of binding with 1 mg/ml IVIG against no IVIG: 2 fold
